Assays:
[1] = biological target: T1, Purified SARS-CoV-2 BA.2 RBD protein (AcroBiosystem) (SARS-CoV-2, Omicron BA.2, strain); experiment: BLI; details: both partners purified
T1 construct: also called Omicron lineage RBD; source: bought: AcroBiosystem

[2] = biological target: T2, SARS-CoV-2 BA.1 RBD (residues 319–537, C-terminal AviTag and 8xHisTag) (SARS-CoV-2, Omicron BA.1 (B.1.1.529), strain); experiment: BLI; details: both partners purified
T2 construct: also called Omicron lineage RBD

[3] = biological target: T3, SARS-CoV-2 spike glycoprotein, Omicron BA.1, Δ19 C-terminal truncation, on ExpiCHO-S cells (SARS-CoV-2, Omicron BA.1 (B.1.1.529), strain); experiment: flow cytometry on cells; details: one partner purified
T3 construct: also called BA.1 spike

[4] = biological target: T4, SARS-CoV-2 spike glycoprotein, Omicron BA.2, Δ19 C-terminal truncation, on ExpiCHO-S cells (SARS-CoV-2, Omicron BA.2, strain); experiment: flow cytometry on cells; details: one partner purified
T4 construct: also called BA.2 spike

[5] = biological target: T5, SARS-CoV-2 spike glycoprotein, Wuhan D614, Δ19 C-terminal truncation, on ExpiCHO-S cells (SARS-CoV-2 BetaCoV/Wuhan-Hu-1/2019 …, UniProt P0DTC2); experiment: flow cytometry on cells; details: one partner purified
T5 construct: also called Wuhan-D614 spike; Wuhan-1 D614

Binder | binding result [1] | binding result [2] | binding result [3] | binding result [4] | binding result [5]
AZD1061 Fab (Fab, V domains shown, also called cilgavimab; COV2-2130) VH: EVQLVESGGGLVKPGGSLRLSCAASGFTFRDVWMSWVRQAPGKGLEWVGRIKSKIDGGTTDYAAPVKGRFTISRDDSKNTLYLQMNSLKTEDTAVYYCTTAGSYYYDTVGPGLPEGKFDYWGQGTLVTVSS VL: not shown | binds | binds | – | – | –
VIR-7831 (the clinical form of S309-LS) (antibody, V domains shown, also called sotrovimab; clinical lead variant of S309-LS; copies: 2 + 2) VH: not shown VL: EIVLTQSPGTLSLSPGERATLSCRASQTVSSTSLAWYQQKPGQAPRLLIYGASSRATGIPDRFSGSGSGTDFTLTISRLEPEDFAVYYCQQHDTSLTFGGGTKVEIK | – | – | binds | binds | binds
AZD8895 Fab (Fab, V domains shown, also called tixagevimab; COV2-2196) VH: QMQLVQSGPEVKKPGTSVKVSCKASGFTFMSSAVQWVRQARGQRLEWIGWIVIGSGNTNYAQKFQERVTITRDMSTSTAYMELSSLRSEDTAVYYCAAPYCSSISCNDGFDIWGQGTMVTVSS VL: not shown | binds | binds | – | – | –
